Experiments:
[1] = biological target: C133Q ΔLTRIN (Aedes aegypti); test: dynamic and static light scattering; DynaPro Nanostar; ΔLTRIN at 1 mg/mL to 20 mg/mL; also with Ca2+ or EGTA without effect
[2] = biological target: C133Q ΔLTRIN (Aedes aegypti); test: SEC; Superdex 75 after Ni-NTA and ion exchange; elution against a standard curve (between 44 kDa and 17 kDa); also with Ca2+ or EGTA/EDTA without effect
[3] = biological target: ΔLTRIN, truncated C-terminal LTRIN (lymphotoxin β receptor inhibitor), residues 86-210 (Aedes aegypti); test: dynamic and static light scattering; DynaPro Nanostar; ΔLTRIN at 1 mg/mL to 20 mg/mL; also with Ca2+ or EGTA without effect
[4] = biological target: ΔLTRIN, truncated C-terminal LTRIN (lymphotoxin β receptor inhibitor), residues 86-210 (Aedes aegypti); test: SEC; Superdex 75 after Ni-NTA and ion exchange; elution against a standard curve (between 44 kDa and 17 kDa); also with Ca2+ or EGTA/EDTA without effect
[5] = biological target: ΔLTRIN, truncated C-terminal LTRIN (lymphotoxin β receptor inhibitor), residues 86-210 (Aedes aegypti); test: AUC; sedimentation velocity, 0.5 mg/mL, 25 mM Tris HCl, 50 mM NaCl pH 7.5, 40,000 rpm, 20 °C, continuous c(s) distribution

Which results are given for C133Q ΔLTRIN (domain or fragment)?
stoichiometry N [1]: 2; stoichiometry N [2]: 2

How did the stoichiometry N [3] turn out when “ΔLTRIN, truncated C-terminal LTRIN (lymphotoxin β receptor inhibitor), residues 86-210 (domain or fragment)” was run?
Its stoichiometry N is 2.

And the stoichiometry N [4]?
The stoichiometry N was 2.

And the stoichiometry N [5]?
Its stoichiometry N is 2.
